Reference: paper PMC4356359, “The structure of bradyzoite-specific enolase from Toxoplasma gondii reveals insights into its dual cytoplasmic and nuclear functions”

T1: TgENO1 (bradyzoite enolase 1) (Toxoplasma gondii, UniProt B9PH47 1-444)
T1 sequence: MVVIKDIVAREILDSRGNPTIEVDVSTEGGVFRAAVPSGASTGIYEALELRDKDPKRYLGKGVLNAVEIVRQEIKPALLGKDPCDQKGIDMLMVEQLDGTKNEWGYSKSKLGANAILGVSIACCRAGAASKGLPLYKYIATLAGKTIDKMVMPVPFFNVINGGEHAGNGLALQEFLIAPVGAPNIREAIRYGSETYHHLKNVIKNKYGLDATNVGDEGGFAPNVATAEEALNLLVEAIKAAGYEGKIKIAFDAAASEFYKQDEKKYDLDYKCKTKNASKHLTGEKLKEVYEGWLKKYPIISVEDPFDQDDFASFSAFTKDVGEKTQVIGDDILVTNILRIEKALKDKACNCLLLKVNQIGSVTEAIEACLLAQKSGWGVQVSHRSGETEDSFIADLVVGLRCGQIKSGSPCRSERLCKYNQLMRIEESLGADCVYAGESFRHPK

B1: probe C (random negative control) (dsDNA)
DNA 1: TTCTCCTGTGTCAT
DNA 2: ATGACACAGGAGAA
B2: TgMAG1 probe (TTTTCT motif) (dsDNA)
DNA 1: TTTTCTTCTCAAGA
DNA 2: TCTTGAGAAGAAAA
B3: probe B (c-Myc promoter TATA box) (dsDNA)
DNA 1: ATATAAAATCCGTA
DNA 2: TACGGATTTTATAT

These binders were tested against T1, TgENO1 (bradyzoite enolase 1) (assay: EMSA; EMSA with Thermo Scientific band-shift kit per manufacturer; buffer, salt, pH and temperature not stated (protein stock 10 mM Tris-HCl pH 8.3, 500 mM NaCl, 5 mM beta-mercaptoethanol)). Details: protein: recombinant; tags: N-terminal His-TEV (pCCK-N'-HisTEV vector).

Q: Does B1 bind?
A: Result: no binding

Q: Does B2 bind?
A: Result: binds

Q: Does B3 bind?
A: Result: no binding
